Reference: publication PMC9400301
Read-outs that look alike come from different tables or passages of the source.

Experiments:
[1] = biological target: Tva fused with HA tag and the human IgG-Fc fragment (pCAGGS-Tva-HA-Fc)
[2] = biological target: Tva fused with HA tag and the human IgG-Fc fragment (pCAGGS-Tva-HA-Fc); assay: co-IP with grey value analysis; settings: parent: est. 1.0; read off a plot
[3] = biological target: Tva fused with HA tag and the human IgG-Fc fragment (pCAGGS-Tva-HA-Fc); remark: listed apart in the source
[4] = biological target: Tva fused with HA tag and the human IgG-Fc fragment (pCAGGS-Tva-HA-Fc); remark: listed apart in the source

Substance | competitive blocking test: percent GFP-positive DF-1 cells after incubation with the concentrated soluble gp85 and infection with RCASBP(A)-EGFP [1] | ratio to parent [2] | also measured
ALV-A gp85 G324P (domain or fragment) | 5.5% | – | –
ALV-A gp85 I326T (domain or fragment) | 4.5% | – | –
ALV-A gp85 wt (soluble gp85 of ALV-A RSA, pCAGGS-s-gp85-flag) 328_329insP | – | 0.71 | –
ALV-A gp85 wt (soluble gp85 of ALV-A RSA, pCAGGS-s-gp85-flag) A270del | – | 0.93 | –
ALV-A gp85 wt (soluble gp85 of ALV-A RSA, pCAGGS-s-gp85-flag) N269del | – | 0.91 | –
recombinant ALV-A gp85 R274V (domain or fragment) | – | – | competitive blocking test: percent GFP-positive DF-1 cells after incubation with the concentrated soluble gp85 and infection with RCASBP(A)-EGFP [3]: 9.5%
soluble recombinant ALV-A gp85 328_329insP (domain or fragment) | 12.5% | – | –
soluble recombinant chimeric protein gp85 s8 (ALV-A gp85 with segment s8, residues 269-275, replaced by that of ALV-K) (domain or fragment) | – | – | competitive blocking test: percent GFP-positive DF-1 cells after incubation with the concentrated soluble gp85 and infection with RCASBP(A)-EGFP [4]: 11%
